The supplement of paper PMC7877785
± gives the uncertainty stated by the source.

Experiment: self-splicing fitness, log relative to wild type (ln ratio); higher = more splicing; Tetrahymena group I intron in knt gene, E. coli kanamycin selection, DiMSum; sequences stand for … in CUCUCU…GGAGGGAAAAGUUAUCAGGCAUGCACCUGGUAGCUAGUCUUUAAACCAAUAGAUUGCAUCGGUUUAAAAGGCAAGACCGUCAAAUUGCGGGAAAGGGGUCAACAGCCGUUCAGUACCAAGUCUCAGGGGAAACUUUGAGAUGGCCUUGCAAAGGGUAUGGUAAUAAGCUGACGGACAUGGUCCUAACCACGCAGCCAAGUCCUAAGUCAACAGAUCUUCUGUUGAUAUGGAUGCAGUUCACAGACUAAAUGUCGGUCGGGGAAGAUGUAUUCUUCUCAUAAGAUAUAGUCGGACCUCUCCUUAAUGGGAGCUAGCGGAUGAAGUGAUGCAACACUGGAGCCGCUGGGAACUAAUUUGUAUGCGAAAGUAUAUUGAUUAGUUUUGGAGUACUCGUGGUCG
In short: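 Fitness was computed with DiMSum as the error-weighted combination of replicate fold changes, kanamycin versus none, each normalised to wild type. The library randomised all eight intron nucleotides of the P1ex region, with the intron placed in the knt kanamycin-resistance gene on pET-22b(+) in E. coli BL21(DE3). Six replicate transformations were grown overnight at 37°C or 30°C on LB agar with or without 25 μg/mL kanamycin, plus 100 μg/mL carbenicillin, 50 μM IPTG and 0.2% rhamnose. Pooled colonies were amplicon-sequenced on an Illumina HiSeq 2500.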

Sequence | self-splicing fitness (ln) (30 °C) | self-splicing fitness (ln) (37 °C)
GUCGAGCAAUAUUACGUAUU | -1.52 ± 0.29 | -0.948 ± 0.23
GAGAAGCAAUAUUACGACAC | -0.317 ± 0.15 | 0.578 ± 0.18
UCGGAGCAAUAUUACGGGUA |  | -1.76 ± 0.45
GCAAAGCAAUAUUACGACUU | -0.0792 ± 0.067 | -0.0895 ± 0.087
GCGUAGCAAUAUUACGUGUC | -3.83 ± 0.27 | -2.06 ± 0.14
GACGAGCAAUAUUACGUAUC |  | -2.42 ± 0.35
CUUCAGCAAUAUUACGGCAG | -0.556 ± 0.12 | -0.351 ± 0.14
ACCAAGCAAUAUUACGUCUG | -2.55 ± 0.1 | -1.02 ± 0.1
GGCCAGCAAUAUUACGAAGG |  | -2.62 ± 0.33
CGCUAGCAAUAUUACGGAAA | -2.34 ± 0.41 | -1.49 ± 0.33
UUACAGCAAUAUUACGUGAC | -3.7 ± 0.21 | -1.81 ± 0.16
UGGUAGCAAUAUUACGCUCG | 0.322 ± 0.17 | 0.532 ± 0.25
GCGAAGCAAUAUUACGGCCU | -1.4 ± 0.12 | 0.334 ± 0.16
CAGCAGCAAUAUUACGUGGG | -3.53 ± 0.14 | -2.31 ± 0.11
GUCUAGCAAUAUUACGGCUA |  | -2.64 ± 0.33
UUAGAGCAAUAUUACGAAGG | -1.72 ± 0.14 | -1.9 ± 0.23
UGGUAGCAAUAUUACGUGCC | -1.42 ± 0.21 | -2.45 ± 0.39
UUGUAGCAAUAUUACGGGUC | -3.03 ± 0.22 | -2.83 ± 0.4
CAACAGCAAUAUUACGUCCC | -1.72 ± 0.14 | -1.46 ± 0.2
AACGAGCAAUAUUACGAUCC | -2.01 ± 0.38 | 
CCGCAGCAAUAUUACGCAGG | -2.77 ± 0.11 | -2.93 ± 0.2

Sequence | self-splicing fitness (ln) (30 °C) | self-splicing fitness (ln) (37 °C)
GCUAAGCAAUAUUACGGGCU |  | -2.23 ± 0.31
UUAGAGCAAUAUUACGUAGG | -2.7 ± 0.14 | -1.5 ± 0.15
GAGCAGCAAUAUUACGGGCG | -2.09 ± 0.14 | -0.811 ± 0.16
CAACAGCAAUAUUACGGAUA | -3.38 ± 0.17 | -2.14 ± 0.15
CAAAAGCAAUAUUACGGCGG | -0.363 ± 0.061 | -0.395 ± 0.079
CCAAAGCAAUAUUACGCACU | -2.09 ± 0.19 | -2.75 ± 0.23
CAUAAGCAAUAUUACGGUAG | -1.06 ± 0.087 | -0.382 ± 0.089
UUAAAGCAAUAUUACGGGAA | -0.821 ± 0.088 | -0.351 ± 0.12
CGAGAGCAAUAUUACGGUCC | -2.23 ± 0.23 | 
AGCAAGCAAUAUUACGCCAG | -2.09 ± 0.2 | -2.65 ± 0.44
AACCAGCAAUAUUACGAGCA | -1.02 ± 0.092 | -0.505 ± 0.1
UGCGAGCAAUAUUACGCGUG | -4.3 ± 0.42 | -1.12 ± 0.25
ACUUAGCAAUAUUACGGCCU | -0.24 ± 0.1 | 0.312 ± 0.11
UCACAGCAAUAUUACGCAUC | -4.21 ± 0.36 | -3.04 ± 0.4
GAGGAGCAAUAUUACGUGAG | -3.37 ± 0.4 | -2.22 ± 0.26
GAUUAGCAAUAUUACGCGGA | -3.19 ± 0.26 | -1.55 ± 0.15
UAGCAGCAAUAUUACGAGAA | -2.19 ± 0.23 | -0.949 ± 0.18
CUAUAGCAAUAUUACGGGGA | -2.58 ± 0.17 | -2.87 ± 0.31
AGACAGCAAUAUUACGGGAC | -2.87 ± 0.18 | -2.54 ± 0.23
GUGCAGCAAUAUUACGCGCG | -2.41 ± 0.13 | -1.98 ± 0.16
GACAAGCAAUAUUACGUGGA | -3.18 ± 0.16 | -1.42 ± 0.1

Sequence | self-splicing fitness (ln) (30 °C) | self-splicing fitness (ln) (37 °C)
CUUAAGCAAUAUUACGGCCA | -2.95 ± 0.44 | 
UCCGAGCAAUAUUACGCAGA | -3.65 ± 0.43 | -2.49 ± 0.23
AGUCAGCAAUAUUACGACUG | -0.879 ± 0.055 | -0.421 ± 0.069
UCUCAGCAAUAUUACGAACU | -1.75 ± 0.17 | -1.34 ± 0.21
UAGUAGCAAUAUUACGCAGU | -2.65 ± 0.21 | -1.02 ± 0.14
UAACAGCAAUAUUACGUCAA | -2.17 ± 0.15 | -0.769 ± 0.1
CUGCAGCAAUAUUACGUUGC | -3.71 ± 0.26 | -2.18 ± 0.29
GAUUAGCAAUAUUACGGAAU | -2.71 ± 0.15 | -2.11 ± 0.17
CCAGAGCAAUAUUACGGAGC | -2.89 ± 0.35 | 
UCGUAGCAAUAUUACGCGAA | -2.68 ± 0.23 | -0.932 ± 0.19
AGUAAGCAAUAUUACGUGAU | -3.15 ± 0.2 | -2.33 ± 0.2
CAGGAGCAAUAUUACGCGCA | -3.62 ± 0.3 | -1.62 ± 0.25
UUUUAGCAAUAUUACGCGAA | -1.57 ± 0.28 | -1.08 ± 0.39
CCUAAGCAAUAUUACGGCGG | -3.12 ± 0.17 | -2.79 ± 0.2
CGCGAGCAAUAUUACGACUU |  | -1.2 ± 0.47
CUAGAGCAAUAUUACGAUAG | -0.96 ± 0.1 | 0.0398 ± 0.18
GGACAGCAAUAUUACGCAAU | -0.155 ± 0.13 | 0.311 ± 0.11
CGUAAGCAAUAUUACGUUUU | -4.1 ± 0.18 | -3.05 ± 0.19
GGGGAGCAAUAUUACGACUC | -0.891 ± 0.25 | -0.405 ± 0.5
AAUGAGCAAUAUUACGCAAG | -3.81 ± 0.27 | -2.45 ± 0.38
GGAUAGCAAUAUUACGGGUA | -2.41 ± 0.16 | 0.0404 ± 0.13
